Results: article PMC10938605 (Science Advances, 2022)

T1: recombinant CYLD WT (GST tag cleaved) (human, UniProt Q9NQC7 1-956)
T1 sequence (looked up): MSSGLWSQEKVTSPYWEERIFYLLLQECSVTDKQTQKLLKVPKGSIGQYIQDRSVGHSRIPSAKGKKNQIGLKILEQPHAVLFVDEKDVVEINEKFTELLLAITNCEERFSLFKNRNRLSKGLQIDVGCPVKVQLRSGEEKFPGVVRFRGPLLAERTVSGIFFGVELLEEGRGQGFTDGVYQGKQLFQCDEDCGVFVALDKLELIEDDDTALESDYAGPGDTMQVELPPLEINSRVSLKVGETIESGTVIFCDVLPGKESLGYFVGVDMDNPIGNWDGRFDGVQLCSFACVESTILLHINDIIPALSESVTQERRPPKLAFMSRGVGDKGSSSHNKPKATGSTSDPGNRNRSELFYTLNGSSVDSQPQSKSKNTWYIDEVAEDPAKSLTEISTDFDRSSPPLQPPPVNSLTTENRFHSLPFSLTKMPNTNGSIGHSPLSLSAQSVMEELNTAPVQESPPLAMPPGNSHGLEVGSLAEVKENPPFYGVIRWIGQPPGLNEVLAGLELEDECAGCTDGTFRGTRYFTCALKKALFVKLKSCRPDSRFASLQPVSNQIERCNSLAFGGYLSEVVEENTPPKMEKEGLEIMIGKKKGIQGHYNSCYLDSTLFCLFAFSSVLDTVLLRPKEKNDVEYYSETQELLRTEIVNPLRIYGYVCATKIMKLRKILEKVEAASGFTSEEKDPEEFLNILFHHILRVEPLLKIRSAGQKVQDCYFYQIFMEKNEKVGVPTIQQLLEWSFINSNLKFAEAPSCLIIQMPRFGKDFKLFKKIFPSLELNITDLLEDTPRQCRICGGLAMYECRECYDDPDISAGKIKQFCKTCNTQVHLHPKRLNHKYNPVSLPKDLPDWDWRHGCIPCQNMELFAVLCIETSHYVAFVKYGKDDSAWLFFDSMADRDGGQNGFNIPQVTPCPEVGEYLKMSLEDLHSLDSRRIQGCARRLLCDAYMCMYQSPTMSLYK

T2: purified recombinant GST-tagged CYLD (human, UniProt Q9NQC7 1-956)
T2 sequence (looked up): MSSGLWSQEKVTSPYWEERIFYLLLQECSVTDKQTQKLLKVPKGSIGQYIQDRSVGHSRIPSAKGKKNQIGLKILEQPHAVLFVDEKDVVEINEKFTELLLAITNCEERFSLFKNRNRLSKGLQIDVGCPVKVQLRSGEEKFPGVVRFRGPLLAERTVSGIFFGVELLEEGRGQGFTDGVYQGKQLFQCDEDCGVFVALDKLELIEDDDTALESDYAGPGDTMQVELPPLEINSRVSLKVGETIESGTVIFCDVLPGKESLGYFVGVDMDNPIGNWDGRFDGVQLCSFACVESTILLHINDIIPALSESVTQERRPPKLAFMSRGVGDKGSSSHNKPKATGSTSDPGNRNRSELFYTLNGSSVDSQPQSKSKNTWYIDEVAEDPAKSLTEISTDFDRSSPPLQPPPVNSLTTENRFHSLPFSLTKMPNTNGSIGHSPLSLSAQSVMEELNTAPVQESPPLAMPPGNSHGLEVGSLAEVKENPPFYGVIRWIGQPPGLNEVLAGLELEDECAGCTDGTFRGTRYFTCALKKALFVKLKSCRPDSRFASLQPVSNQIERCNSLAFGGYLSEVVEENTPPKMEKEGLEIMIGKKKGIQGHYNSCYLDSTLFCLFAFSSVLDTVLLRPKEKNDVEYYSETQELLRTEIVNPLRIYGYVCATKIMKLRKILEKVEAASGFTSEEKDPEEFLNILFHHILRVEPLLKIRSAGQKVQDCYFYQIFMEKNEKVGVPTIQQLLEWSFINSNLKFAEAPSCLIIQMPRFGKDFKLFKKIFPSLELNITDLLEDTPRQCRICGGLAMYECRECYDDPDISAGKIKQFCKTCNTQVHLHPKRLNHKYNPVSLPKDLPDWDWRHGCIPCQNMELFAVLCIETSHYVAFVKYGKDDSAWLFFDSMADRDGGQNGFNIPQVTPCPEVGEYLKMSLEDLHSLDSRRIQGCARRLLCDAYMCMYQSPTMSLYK


How the values were obtained:
[1] = target: T1, recombinant CYLD WT (GST tag cleaved); test: pull-down
[2] = target: T2, purified recombinant GST-tagged CYLD; test: pull-down

Binder | binding result [1] | binding result [2]
purified recombinant GST-tagged PARIS (natural protein) not shown | binds | –
recombinant PARIS (prey of the reciprocal GST pull-down) (natural protein) not shown | – | binds
